{
  "source": "patent US20210040185A1",
  "assay_in_all_cases": "cell-based or functional assay",
  "key": {"[1]": {"target": "HIV-1 envelope (Env) of virus AC10.0.29 (HIV-1)"}, "[2]": {"target": "HIV-1 envelope (Env) of virus CAP45.2.00.G3 (HIV-1)"}, "[3]": {"target": "HIV-1 envelope (Env) of virus CNE20 (HIV-1)"}, "[4]": {"target": "HIV-1 envelope (Env) of virus DU172.17 (HIV-1)"}, "[5]": {"target": "HIV-1 envelope (Env) of virus REJO4541.67 (HIV-1)"}, "[6]": {"target": "HIV-1 envelope (Env) of virus WITO4160.33 (HIV-1)"}},
  "data": [
    {"substance": "3BNC117 (antibody)", "values": [
      {"measurement": "IC50 of viral neutralization (Env.IMC.LucR virus, TZM-BL reporter cells)", "setting": "[1]", "value": 11, "unit": "µg/mL"},
      {"measurement": "IC50 of viral neutralization (Env.IMC.LucR virus, TZM-BL reporter cells)", "setting": "[2]", "value": 2.7, "unit": "µg/mL"},
      {"measurement": "IC50 of viral neutralization (Env.IMC.LucR virus, TZM-BL reporter cells)", "setting": "[3]", "value": "> 50", "unit": "µg/mL"},
      {"measurement": "IC50 of viral neutralization (Env.IMC.LucR virus, TZM-BL reporter cells)", "setting": "[4]", "value": 1.25, "unit": "µg/mL"},
      {"measurement": "IC50 of viral neutralization (Env.IMC.LucR virus, TZM-BL reporter cells)", "setting": "[5]", "value": 0.07, "unit": "µg/mL"},
      {"measurement": "IC50 of viral neutralization (Env.IMC.LucR virus, TZM-BL reporter cells)", "setting": "[6]", "value": 0.053, "unit": "µg/mL"}
    ]}
  ]
}
